Data published in patent US20180237496A1 (DENALI THERAPEUTICS, published 2018).

T1: His-tagged permuted human TfR apical domain (TfR-AD) (human)
T1 construct: C-terminal His6; used for co-crystals (Expi293 or CHO); also called permuted TfR apical domain
T1 chain: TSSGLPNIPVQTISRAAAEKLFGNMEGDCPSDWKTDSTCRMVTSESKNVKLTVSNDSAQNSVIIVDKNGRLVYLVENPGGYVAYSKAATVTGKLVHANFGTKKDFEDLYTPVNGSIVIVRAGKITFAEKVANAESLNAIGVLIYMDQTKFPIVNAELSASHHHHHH

T2: cynomolgus (cyno) transferrin receptor (TfR) ectodomain (ECD) (cynomolgus (cyno), biotinylated where captured on streptavidin ; biotinylated (sulfo-NHS-LC-biotin on amines or BirA on the Avi-tag) where captured on streptavidin)
T2 construct: made in HEK293; also called cyno TfR; cynoTfR; not shown: C-terminal cleavable His- and Avi-tags with their cleavage site
T2 chain: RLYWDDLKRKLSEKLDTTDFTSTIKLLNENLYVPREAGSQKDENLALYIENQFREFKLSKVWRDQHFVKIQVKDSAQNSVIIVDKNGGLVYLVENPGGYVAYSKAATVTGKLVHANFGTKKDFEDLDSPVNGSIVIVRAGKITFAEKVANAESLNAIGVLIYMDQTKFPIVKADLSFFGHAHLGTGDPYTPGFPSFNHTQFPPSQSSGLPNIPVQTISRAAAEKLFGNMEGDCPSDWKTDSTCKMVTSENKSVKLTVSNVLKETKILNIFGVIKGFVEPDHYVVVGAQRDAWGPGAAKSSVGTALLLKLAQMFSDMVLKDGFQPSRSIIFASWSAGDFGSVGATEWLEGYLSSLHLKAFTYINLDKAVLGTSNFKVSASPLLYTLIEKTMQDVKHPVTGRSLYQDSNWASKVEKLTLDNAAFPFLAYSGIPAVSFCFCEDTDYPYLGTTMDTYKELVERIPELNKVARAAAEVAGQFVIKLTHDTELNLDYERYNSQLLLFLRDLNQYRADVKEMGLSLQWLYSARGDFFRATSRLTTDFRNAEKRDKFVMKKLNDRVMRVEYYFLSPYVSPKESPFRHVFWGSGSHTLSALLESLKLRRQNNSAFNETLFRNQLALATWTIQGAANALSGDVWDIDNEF


Legend:
[1] = biological target: T1, His-tagged permuted human TfR apical …; test: size-exclusion chromatography of the mixed proteins
[2] = biological target: T3, human transferrin receptor (TfR) ectodomain (ECD) (human, biotinylated where captured on streptavidin ; Biotinylated (NHS-biotin on amines, or BirA on the Avi-tag) where captured on streptavidin. It forms a homodimer, and the unique chain is given once.); test: ELISA, clone as Fc-Fab fusion, human TfR coated
T3 construct: made in HEK293; also called human TfR; huTfR; not shown: The C-terminal cleavable His- and Avi-tags

[3] = biological target: T3, human transferrin receptor (TfR) …; test: phage ELISA, clone on phage, target coated on plate
Experimental: (§1) FIGS. 1A-1D show phage ELISA results for four CH2A2 clones.
(§2) ELISA plates were coated with target, typically at […] overnight, then blocked with 1% BSA before addition of phage or periplasmic extracts. […] The plates were washed again, and then developed with TMB reagent and quenched with 2N sulfuric acid. […] Absorbance signal for tested clones was compared to negative control (phage or paraplasmic extract lacking Fc).
Target sequence in this assay (chain, as listed by the source limits assumed, form in doubt): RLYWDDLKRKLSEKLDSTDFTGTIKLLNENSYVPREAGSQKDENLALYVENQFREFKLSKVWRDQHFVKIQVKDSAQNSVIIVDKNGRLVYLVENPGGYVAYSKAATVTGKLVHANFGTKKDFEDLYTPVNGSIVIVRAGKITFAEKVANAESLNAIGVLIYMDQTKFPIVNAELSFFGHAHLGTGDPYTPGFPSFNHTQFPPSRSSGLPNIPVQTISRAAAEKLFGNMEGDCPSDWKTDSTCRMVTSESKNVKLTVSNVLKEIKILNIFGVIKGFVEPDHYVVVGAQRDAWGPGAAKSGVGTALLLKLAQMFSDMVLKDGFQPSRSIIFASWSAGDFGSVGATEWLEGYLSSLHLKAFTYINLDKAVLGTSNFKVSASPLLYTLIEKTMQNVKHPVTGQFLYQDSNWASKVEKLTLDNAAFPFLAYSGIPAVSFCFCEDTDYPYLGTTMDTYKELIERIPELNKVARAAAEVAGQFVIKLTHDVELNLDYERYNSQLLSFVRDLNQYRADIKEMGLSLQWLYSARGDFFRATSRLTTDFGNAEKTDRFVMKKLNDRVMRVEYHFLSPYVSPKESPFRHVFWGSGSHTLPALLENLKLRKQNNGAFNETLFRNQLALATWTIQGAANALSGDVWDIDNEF

[4] = biological target: T2, cynomolgus (cyno) transferrin receptor …; test: as above
Experimental: as §1, §2

| Binder | binding result [1] | EC50 (read off the curve) [2] | EC50 (read off the curve) [3] | EC50 (read off the curve) [4] |
| --- | --- | --- | --- | --- |
| CH3C.18 Fc (expressed engineered human Fc) (designed binder, also called CH3C.18 Fc polypeptide) DKTHTCPPCPAPEAAGGPSVFLFPPKPKDTLYITREPEVTCVVVDVSHEDPEVKFNWYVDGVEVHNAKTKPREEQYNSTYRVVSVLTVLHQDWLNGKEYKCKVSNKALGAPIEKTISKAKGQPREPQVYTLPPSRDELTKNQVSLTCLVKGFYPSDIAVEWESLGHVWAVYKTTPPVLDSDGSFFLYSKLTVPKSTWQQGWVFSCSVMHEALHNHYTQKSLSLSPGK | binds | – | – | – |
| CH3C.35 Fc (expressed engineered human Fc) (designed binder) DKTHTCPPCPAPEAAGGPSVFLFPPKPKDTLYITREPEVTCVVVDVSHEDPEVKFNWYVDGVEVHNAKTKPREEQYNSTYRVVSVLTVLHQDWLNGKEYKCKVSNKALGAPIEKTISKAKGQPREPQVYTLPPSRDELTKNQVSLTCLVKGFYPSDIAVEWESYGTEWSSYKTTPPVLDSDGSFFLYSKLTVTKSEWQQGFVFSCSVMHEALHNHYTQKSLSLSPGK | binds | – | – | – |
| Clone CH2C.6 (designed binder, modified human IgG1 Fc, phage display) PCPAPELLGGPSVFLFPPKPKDTLMISRTPEVTCVVVDPKMPPWEVKFNWYVDGVEVHNAKTKPREEEYYTYYRVVSVLTVLHQDWLNGKEYKCKVSNKALPAPIEKTISKAKGQPREPQVYTLPPSRDELTKNQVSLTCLVKGFYPSDIAVEWESNGQPENNYKTTPPVLDSDGSFFLYSKLTVDKSRWQQGNVFSCSVMHEALHNHYTQKSLSLSPGK | – | ~2 nM | – | – |
| Clone CH2A2.4 (designed binder, modified human IgG1 Fc, phage display) PCPAPELLGGPSVFLFPPKPKDTLMISRTPEVTCVVVDVSHEDPEVSFEWYVDGVPVRWEWQWPREEQYNSTYRVVSVLTVLHQDWLNGKEYKCKVSNKALPAPIEKTISKAKGQPREPQVYTLPPSRDELTKNQVSLTCLVKGFYPSDIAVEWESNGQPENNYKTTPPVLDSDGSFFLYSKLTVDKSRWQQGNVFSCSVMHEALHNHYTQKSLSLSPGK | – | – | ~0.02 OD268 (phage solution) | ~0.02 OD268 (phage solution) |
| Clone CH2A2.1 (designed binder, modified human IgG1 Fc, phage display) PCPAPELLGGPSVFLFPPKPKDTLMISRTPEVTCVVVDVSHEDPEVEFIWYVDGVDVRYEWQLPREEQYNSTYRVVSVLTVLHQDWLNGKEYKCKVSNKALPAPIEKTISKAKGQPREPQVYTLPPSRDELTKNQVSLTCLVKGFYPSDIAVEWESNGQPENNYKTTPPVLDSDGSFFLYSKLTVDKSRWQQGNVFSCSVMHEALHNHYTQKSLSLSPGK | – | – | ~0.03 OD268 (phage solution) | ~0.04 OD268 (phage solution) |
| Clone CH2A2.5 (designed binder, modified human IgG1 Fc, phage display) PCPAPELLGGPSVFLFPPKPKDTLMISRTPEVTCVVVDVSHEDPEVAFTWYVDGVPVRWEWQNPREEQYNSTYRVVSVLTVLHQDWLNGKEYKCKVSNKALPAPIEKTISKAKGQPREPQVYTLPPSRDELTKNQVSLTCLVKGFYPSDIAVEWESNGQPENNYKTTPPVLDSDGSFFLYSKLTVDKSRWQQGNVFSCSVMHEALHNHYTQKSLSLSPGK | – | – | ~0.008 OD268 (phage solution) | ~0.01 OD268 (phage solution) |
| Clone CH2A2.16 (designed binder, modified human IgG1 Fc, phage display) PCPAPELLGGPSVFLFPPKPKDTLMISRTPEVTCVVVDVSHEDPEVWFEWYVDGVFVGVAYDVPREEQYNSTYRVVSVLTVLHQDWLNGKEYKCKVSNKALPAPIEKTISKAKGQPREPQVYTLPPSRDELTKNQVSLTCLVKGFYPSDIAVEWESNGQPENNYKTTPPVLDSDGSFFLYSKLTVDKSRWQQGNVFSCSVMHEALHNHYTQKSLSLSPGK | – | – | ~0.04 OD268 (phage solution) | – |
